Reference: article PMC10978878 (Nature Communications, 2024)

B1: SD1-2 Fab (Fab, V domains shown)
VH: QVQLVQSGPGLVKPSQTLSLTCSVSGDSISSGTYYWSWIRLPAGQGLEWIGRVHSSGSTSYNPSLKSRVTISVDTSKNNFSLKLSSVTAADTAVYYCVRLDNCSAGYCHAFDIWGQGTMVTVSS
VL: QSVLTQPASVSGSPGQSITISCTGTSSDVGSYNLVSWYQQHPGKAPKVMIYEVSKWPSGVSNRFSGSKSGNTASLTISGLQAEDEADYYCCSYAGSGTYVFGTGTKVTVL
B2: SD1-3 Fab (Fab, V domains shown)
VH: QVQLVESGGGLVQPGGSLRLSCTASGVTFSSYAMSWVRQAPGKGLEWVSGISGSGDSTYYADSVKGRFTISRDNSKNTLYLQMNSLRVEDTAVYYCATHYCSGGSCPFDYWGQGTLVTVSS
VL: PSALTQPPSVSVSPGQTASITCSGDKLGNKYAYWYQQKPGQSPVLVIFQDTMRPSGIPERFSASNSGNTATLTISGTQSIDEADYYCQAWDSNTAVFGGGTKLTVL
B3: SD1-1 Fab (Fab, V domains shown)
VH: QVQLVESGPGLVKPSETLSLTCSVSGGSIDNFYWSWIRQPPGKGLEWIGNIYYGGSGNYNPSLKSRVTISVDTSKNQVSLKLRSVTAADTAVYYCARDSVWYTGSYGLIYWGPGTLVTVSS
VL: SVVTQPASVSGSPGQSITISCTGTSSDVGSYNLVSWFQQHPGKAPKLMIYEVTKRPSGISNRFSGSKSGNTASLTISRLQAEDEADYYCCSYAGSSTVVFGGGTKLTVL

Legend:
[1] = target: BA.2.12.1 spike, recombinant trimer that retains the native sequence (SARS-CoV-2, UniProt P0DTC2); test: cryo-EM structure; conditions: both partners purified
[2] = target: BA.4 spike, recombinant trimeric S-twin-Strep, prefusion stabilized (SARS-CoV-2, UniProt P0DTC2); test: cryo-EM structure; conditions: both partners purified

| Binder | stoichiometry N [1] | stoichiometry N [2] |
| --- | --- | --- |
| B1 | 3 Fab per spike trimer |  |
| B2 | 3 Fab per spike trimer |  |
| B3 |  | 3 Fab per spike trimer |
